Measurements taken from article PMC6379675, “Structural insights into chromosome attachment to the nuclear envelope by an inner nuclear membrane protein Bqt4 in fission yeast” (Nucleic Acids Research, 2018).

B1: Sad1 (residues 88–101) [S. pombe] / Bqt4_(2–140), N-terminal domain of Bqt4 [S. pombe] (parent complex)
chain 1: SDNEEFENVVKNGH
chain 2: TENEKSRSLPAERNPLYKDDTLDHTPLIPKCRAQVIEFPDGPATFVRLKCTNPESKVPHFLMRMAKDSSISATSMFRSAFPKATQEEEDLEMRWIRDNLNPIEDKRVAGLWVPPADALALAKDYSMTPFINALLEASST
B2: Lem2_(261–279) [S. pombe] / Bqt4_(2–140), N-terminal domain of Bqt4 [S. pombe] (parent complex)
chain 1: SAEEDDELFQNYVLQQTRK
chain 2: B1 chain 2
B3: Rap1_(479–527) [S. pombe] / Bqt4_(2–140), N-terminal domain of Bqt4 [S. pombe] (parent complex)
chain 1: EIPLLSDYSDSENISEKSSDDEEAFEKQVTSSYSSPIKVKSQGKSSKGS
chain 2: B1 chain 2

Variants of: B1
Assay: ITC; parent: 3.7e+03 nM

Q: For chain 2 TENEKSRSLPAERNPLYKDDTLDHTPLIPKCRAQVIEFPDGPATFVELKCTNPESKVPHFLMRMAKDSSISATSMFRSAFPKATQEEEDLEMRWIRDNLNPIEDKRVAGLWVPPADALALAKDYSMTPFINALLEASST [chain 2 R47E], which Kd is on record?
A: 262 µM

Variants of: B2
Assay: ITC; parent: 530 nM

Q: How did the Kd turn out when chain 2 TENEKSRSLPAERNPLYKDDTLDHTPLIPKCRAQVIEFPDGPATFVELKCTNPESKVPHFLMRMAKDSSISATSMFRSAFPKATQEEEDLEMRWIRDNLNPIEDKRVAGLWVPPADALALAKDYSMTPFINALLEASST [chain 2 R47E] was run?
A: 3.2 µM

Q: Which Kd does the source give for chain 2 TENEKSRSLPAERNPLYKDDTLDHTPLIPKCRAQVIEFPDGPATFVRLKCTNPESKVPHALMRMAKDSSISATSMFRSAFPKATQEEEDLEMRWIRDNLNPIEDKRVAGLWVPPADALALAKDYSMTPFINALLEASST [chain 2 F60A] here?
A: 46 µM

Variants of: B3
Assay: ITC; parent: 1.14e+04 nM

Q: How did the Kd turn out when chain 2 TENEKSRSLPAERNPLYKDDTLDHTPLIPKCAAQVIEFPDGPATFVRLKCTNPESKVPHFLMRMAKDSSISATSMFRSAFPKATQEEEDLEMRWIRDNLNPIEDKRVAGLWVPPADALALAKDYSMTPFINALLEASST [chain 2 R32A] was run?
A: 12.3 µM

Q: chain 2 TENEKSRSLPAERNPLYKDDTLDHTPLIPKCRAQVIEFPDGPATFVRLKCTNPESKVPHFLMRMAKDSSISATSMFRSAFPKATQEEERLEMRWIRDNLNPIEDKRVAGLWVPPADALALAKDYSMTPFINALLEASST [chain 2 D89R] was tested. Which Kd did it give?
A: 14.4 µM

Variants of: B3
Assay: ITC; parent: 1.14e+04 nM
Remark: another data set of the same source

Q: chain 1 EIPLLSDYSDSENISEKAADDEEAFEKQVTSSYSSPIKVKSQGKSSKGS [chain 1 S18A, chain 1 S19A] was tested. Which Kd did it give?
A: 8 µM

Q: chain 1 EIPLLSDYSDSENISEKSSDDEEAFEKQVTSSYEEPIKVKSQGKSSKGS [chain 1 S34E, chain 1 S35E] was tested. Which Kd did it give?
A: 115 µM

Q: How did the Kd turn out when chain 1 EIPLLSDYSDSENISEKSADDEEAFEKQVTSSYSSPIKVKSQGKSSKGS [chain 1 S19A] was run?
A: 9.5 µM

Q: chain 1 EIPLLSDYSDSENISEKSEDDEEAFEKQVTSSYSSPIKVKSQGKSSKGS [chain 1 S19E] was tested. Which Kd did it give?
A: 2.6 µM

Q: chain 1 EIPLLSDYSDSENISEKSSDDEEAFEKQVTSSYSAPIKVKSQGKSSKGS [chain 1 S35A] was tested. Which Kd did it give?
A: 7.9 µM

Q: With chain 1 EIPLLSDYSDSENISEKSSDDEEAFEKQVTSSYSEPIKVKSQGKSSKGS [chain 1 S35E] as the variant, how does the Kd read?
A: 57.8 µM

Q: With chain 1 EIPLLSDYSDSENISEKASDDEEAFEKQVTSSYSSPIKVKSQGKSSKGS [chain 1 S18A] as the variant, how does the Kd read?
A: 10.6 µM

Q: chain 1 EIPLLSDYSDSENISEKESDDEEAFEKQVTSSYSSPIKVKSQGKSSKGS [chain 1 S18E] was tested. Which Kd did it give?
A: 2.4 µM

Q: How did the Kd turn out when chain 1 EIPLLSDYSDSENISEKSSDDEEAFEKQVTSSYAAPIKVKSQGKSSKGS [chain 1 S34A, chain 1 S35A] was run?
A: 7.3 µM

Q: With chain 1 EIPLLSDYSDSENISEKEEDDEEAFEKQVTSSYSSPIKVKSQGKSSKGS [chain 1 S18E, chain 1 S19E] as the variant, how does the Kd read?
A: 0.9 µM

Q: For chain 1 EIPLLSDYSDSENISEKSSDDEEAFEKQVTSSYESPIKVKSQGKSSKGS [chain 1 S34E], which Kd is on record?
A: 27.2 µM

Q: With chain 1 EIPLLSDYSDSENISEKSSDDEEAFEKQVTSSYASPIKVKSQGKSSKGS [chain 1 S34A] as the variant, how does the Kd read?
A: 7.1 µM

Variants of: B3
Assay: ITC; parent: 1.14e+04 nM
Remark: another data set of the same source

Q: For chain 1 EIPLLSDYSDSENISEKSSDAAEAFEKQVTSSYSSPIKVKSQGKSSKGS [chain 1 D21A, chain 1 E22A], which Kd is on record?
A: 862 µM

Q: With chain 1 EIPLLSDYSDSENISEKSSDDEEAAEKQVTSSYSSPIKVKSQGKSSKGS [chain 1 F25A] as the variant, how does the Kd read?
A: 106 µM

Q: Which Kd does the source give for chain 1 EIPLLSDYSDSENISEKSSDDEEAFEKQATSSYSSPIKVKSQGKSSKGS [chain 1 V29A] here?
A: 138 µM

Variants of: B3
Assay: ITC; parent: 1.14e+04 nM
Remark: another data set of the same source

Q: chain 2 TENEKSRSLPAERNPLYKDDTLDHTPLIPKCRAQVIEFPDGPATFVRLKCTNPESKVPHALMRMAKDSSISATSMFRSAFPKATQEEEDLEMRWIRDNLNPIEDKRVAGLWVPPADALALAKDYSMTPFINALLEASST [chain 2 F60A] was tested. Which Kd did it give?
A: 909 µM
